Starred links: 1 amine or outer side, 2 acyl side, 3 side chain; linkers in the order of their positions; H or OH if unused. Primed or numbered codes have the meaning given here. DPPE′ = dipalmitoylphosphatidylethanolamine; Glutaryl = O=C(CCCC(=O)[*:2])[*:1]
Legend:
[1] = target: binding target for TKPPR on HAEC (human aortic endothelial cells); assay: static bubble binding to HAEC, 5% D47, no competitor
[2] = target: binding target for TKPPR on HAEC (human aortic endothelial cells); assay: static bubble binding to HAEC, 5% composition, untreated cells
[3] = target: binding target for TKPPR on HAEC (human aortic endothelial cells); assay: static bubble binding to HAEC, 5% composition, no competitor
[4] = target: binding target for TKPPR on HAEC (human aortic endothelial cells); assay: static bubble binding to HAEC treated 4 h with 10 ng/mL TNFα, 5% composition
[5] = target: KB cells (human epidermoid carcinoma cell line); assay: static bubble binding to KB cells, 5% composition
[6] = target: binding target for TKPPR on HAEC (human aortic endothelial cells); assay: static bubble binding to HAEC treated 4 h with 5 ng/mL TNFα, 5% composition
[7] = target: binding target for TKPPR on HAEC (human aortic endothelial cells); assay: static bubble binding to HAEC, 5% composition, no competitor (same control as Table 13)
[8] = target: binding target for TKPPR on HAEC (human aortic endothelial cells); assay: static bubble binding to HAEC, 5% composition, no competition
[9] = target: binding target for TKPPR on HAEC (human aortic endothelial cells); assay: static bubble binding to HAEC, 10% D47, no competitor
[10] = target: binding target for TKPPR on HAEC (human aortic endothelial cells); assay: static bubble binding to HAEC, manual count
[11] = target: binding target for TKPPR on HAEC (human aortic endothelial cells); assay: static bubble binding to HAEC treated 4 h with 1 ng/mL TNFα, 5% composition
[12] = target: binding target for TKPPR on HAEC (human aortic endothelial cells); assay: static bubble binding to HAEC, 5% composition
[13] = target: binding target for TKPPR on HAEC (human aortic endothelial cells); assay: static bubble binding to HAEC, 1% D47, no competitor
[14] = target: binding target for TKPPR on HAEC (human aortic endothelial cells); assay: static bubble binding to HAEC, 1% composition, no competition
[15] = target: binding target for TKPPR on HAEC (human aortic endothelial cells); assay: static bubble binding to HAEC, 2% D47, no competitor
[16] = target: binding target for TKPPR on RAEC (rabbit aortic endothelial cells); assay: static bubble binding to RAEC, 5% composition, no competitor

B1: gas-filled microbubbles containing DPPE-Glu-GTKPPR (D47), composition I of Example 5 (peptide)
peptide: {DPPE′-Glutaryl}-GTKPPR-OH
modifications: also: held in phospholipid shell of microbubbles
- Bubbles Bound- 5% [1]: 2780 bubbles
- TKPPR-Bubbles bound [2]: 950 bubbles
- Bubbles Bound [3]: 1250 bubbles
- HAEC bubbles bound [3]: 1420 bubbles
- TKPPR-Bubbles bound [4]: 1020 bubbles
- bubble binding [5]: 56 bubbles
- TKPPR-Bubbles bound [6]: 1360 bubbles
- Bubbles Bound [7]: 1250 bubbles
- Bubbles Bound [8]: 726 bubbles
- Bubbles Bound- 10% [9]: 1860 bubbles
- % more bubbles bound than with the 1% composition [10]: 31%
- TKPPR-Bubbles bound [11]: 1520 bubbles
- Bubbles Bound [12]: 7050 bubbles
- bubble binding [12]: 1120 bubbles
- Bubbles Bound [13]: 737 bubbles
- Bubbles Bound- 1% [13]: 1640 bubbles
- Bubbles Bound [14]: 555 bubbles
- Bubbles Bound [15]: 953 bubbles
- Bubbles Bound % [15]: 100 % of control
- RAEC bubbles bound [16]: 751 bubbles

— patent publication US20060153775A1
